The values below are quoted from earlier work in paper PMC6627586.

For the data set, the target named is ceruloplasmin (Homo sapiens) (UniProt P00450).
UniProt P00450, sequence (P00450 20-1065): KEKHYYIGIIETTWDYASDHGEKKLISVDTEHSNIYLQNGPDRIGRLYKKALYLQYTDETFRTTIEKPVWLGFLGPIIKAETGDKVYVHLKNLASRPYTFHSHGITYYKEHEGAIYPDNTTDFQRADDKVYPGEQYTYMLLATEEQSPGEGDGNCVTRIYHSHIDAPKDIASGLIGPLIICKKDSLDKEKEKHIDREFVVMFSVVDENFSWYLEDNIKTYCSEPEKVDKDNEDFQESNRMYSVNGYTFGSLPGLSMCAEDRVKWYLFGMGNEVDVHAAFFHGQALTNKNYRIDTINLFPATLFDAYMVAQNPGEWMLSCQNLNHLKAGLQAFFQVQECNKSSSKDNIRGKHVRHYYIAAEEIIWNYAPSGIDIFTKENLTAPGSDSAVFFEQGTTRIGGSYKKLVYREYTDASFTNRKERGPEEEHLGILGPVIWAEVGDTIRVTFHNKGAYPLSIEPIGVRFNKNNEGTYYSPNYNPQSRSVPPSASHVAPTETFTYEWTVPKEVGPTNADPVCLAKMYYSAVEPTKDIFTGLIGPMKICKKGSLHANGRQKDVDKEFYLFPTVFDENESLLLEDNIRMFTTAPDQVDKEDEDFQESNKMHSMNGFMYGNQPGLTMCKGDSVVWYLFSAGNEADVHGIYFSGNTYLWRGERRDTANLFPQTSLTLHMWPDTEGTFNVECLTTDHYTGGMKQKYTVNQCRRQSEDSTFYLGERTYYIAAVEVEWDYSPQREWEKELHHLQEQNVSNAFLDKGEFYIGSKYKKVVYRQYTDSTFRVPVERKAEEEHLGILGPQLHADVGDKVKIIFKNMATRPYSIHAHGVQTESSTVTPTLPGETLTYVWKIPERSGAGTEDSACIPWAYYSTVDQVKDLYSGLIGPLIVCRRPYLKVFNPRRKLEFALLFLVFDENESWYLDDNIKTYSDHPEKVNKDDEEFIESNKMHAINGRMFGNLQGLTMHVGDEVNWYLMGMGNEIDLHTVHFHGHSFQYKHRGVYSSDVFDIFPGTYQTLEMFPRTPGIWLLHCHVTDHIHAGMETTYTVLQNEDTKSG

For the substance “CTR1 second extracellular loop fragment (from UniProt O15431)”, the Kd was 1500 nM.

In general, Kd refers to the free concentration of one partner at which half of the binding sites on the other are occupied at equilibrium, for simple one-to-one binding.
